Source: publication PMC5677370, “Structure-based nuclear import mechanism of histones H3 and H4 mediated by Kap123” (eLife, 2017)

Molecular target: T1, full-length Kluyveromyces lactis (Kl) Kap123, wild type
T1 chain: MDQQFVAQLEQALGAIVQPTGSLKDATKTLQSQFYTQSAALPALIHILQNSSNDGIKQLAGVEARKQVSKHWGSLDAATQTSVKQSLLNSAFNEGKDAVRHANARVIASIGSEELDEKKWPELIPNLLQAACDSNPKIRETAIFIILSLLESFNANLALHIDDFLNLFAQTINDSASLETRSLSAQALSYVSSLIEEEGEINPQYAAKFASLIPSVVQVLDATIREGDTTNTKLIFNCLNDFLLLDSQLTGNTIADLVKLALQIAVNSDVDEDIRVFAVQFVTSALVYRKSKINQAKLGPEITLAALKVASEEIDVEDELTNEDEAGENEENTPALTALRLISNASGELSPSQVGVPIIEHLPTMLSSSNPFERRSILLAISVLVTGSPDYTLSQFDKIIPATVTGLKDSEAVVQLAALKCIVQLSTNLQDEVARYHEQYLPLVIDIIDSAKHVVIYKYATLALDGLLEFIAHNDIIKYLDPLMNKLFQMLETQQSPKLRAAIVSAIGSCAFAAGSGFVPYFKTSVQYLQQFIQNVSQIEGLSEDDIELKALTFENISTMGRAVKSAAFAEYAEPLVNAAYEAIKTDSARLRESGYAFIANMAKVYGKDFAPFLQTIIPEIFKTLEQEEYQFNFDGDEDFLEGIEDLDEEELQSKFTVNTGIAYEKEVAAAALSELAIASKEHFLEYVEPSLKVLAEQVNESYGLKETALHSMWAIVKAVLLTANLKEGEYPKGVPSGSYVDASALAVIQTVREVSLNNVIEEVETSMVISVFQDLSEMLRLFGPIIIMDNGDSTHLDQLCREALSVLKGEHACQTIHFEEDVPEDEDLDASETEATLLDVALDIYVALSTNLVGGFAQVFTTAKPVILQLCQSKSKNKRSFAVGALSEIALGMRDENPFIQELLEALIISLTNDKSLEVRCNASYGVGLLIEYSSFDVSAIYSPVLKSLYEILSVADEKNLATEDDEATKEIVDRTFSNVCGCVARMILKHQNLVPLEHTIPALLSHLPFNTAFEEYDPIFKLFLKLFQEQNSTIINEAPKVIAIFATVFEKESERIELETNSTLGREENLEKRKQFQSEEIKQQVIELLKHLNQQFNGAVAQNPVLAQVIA
Assay: SPR
Conditions: chain shown with the change; 7°C; wild-type Kap123 immobilized on a CM5 chip with 7116 RU; peptides injected at 0-10 µM; parent: est. 1.00; read off a plot

ratio to parent: 0.4
Binder: SGRGQGGKGLGQGGAKRHRKI [wild-type H4_(1–21)-NLS peptide, P02309 K5Q; K12Q]
